# Counter-ions that a name gives are not always drawn. Like-named read-outs stand apart in the source and are kept apart here.
# B1: shRUNX1: shRNA against RUNX1, target sequence SEQ ID NO: 3, shRNA sequence SEQ ID NO: 4 (nucleic acid)
# chain: GATCCCCACTTTCCAGTCGACTCTCATTCAAGAGATGAGAGTCGACTGGAAAGTTTTTTGGAAAA
# B2: shHMGA2: shRNA against HMGA2, target sequence SEQ ID NO: 5, shRNA sequence SEQ ID NO: 6, introduced with viral vector (nucleic acid)
# chain: GATCCCCATGAGACGAAATGCTGATGTATTTCAAGAGAATACATCAGCATTTCGTCTCATTTTTTGGAAAA
# How the values were obtained:
# [1] = tested on: immortalized megakaryocytes; settings: for synergistic effect on number and function of platelets produced, ROCK inhibitor combined with SR-1: in combination with SR-1, compared with each alone (FIG. 9)
# Experimental: Immortalized megakaryocytes obtained according to the method described in section 1 were washed twice with PBS(−) followed by removing the doxycycline to terminate overexpression, static culturing after disseminating the cells in a 6-well plate at 2 mL/well and a seeding density of 1×10^5 cells/mL, and then shake culturing in an E125 flask at 25 mL/flask and a seeding density of 1×10^5 cells/m L.
# The medium was obtained by adding the following components to IMDM serving as the basal medium (concentrations indicate final concentrations).
# Culturing was implemented under conditions of 37° C., 5% CO2 and 20% O2. The numbers of platelets and PAC-1 positive cells were measured using the same method as described in the above-mentioned section 2.
# [2] = tested on: immortalized megakaryocyte line (SeV2-MKCL)
# Experimental: Culturing was implemented by disseminating the cells at 2 mL/well in a 6-well plate at a seeding concentration of 1×10^5 cells/mL followed by static culturing in the medium indicated below.
# After simultaneously adding SR-1 at the concentrations shown in FIG. 1 and culturing for 7 days, the number and function of the platelets were measured. The measurement method was as shown below.
# The culture supernatant was gently suspended using a 1 mL Pipetman 7 days after culturing to terminate gene expression. 200 μL of the culture broth were dispensed into a 5 mL sample tube followed by staining with the antibodies indicated below.
# Measurement was carried out using FACS Verse manufactured by Becton Dickinson and Company 30 minutes after the reaction. 400 μL of Tyrode's buffer Ca^+ were added immediately before measurement to bring to a total volume of 600 μL. This total volume of 600 μL was used for the FACS measurement sample.
# The number of particles positive for CD42a and CD42b were considered to represent the number of platelets, and the ratio of the mean fluorescence intensities (MFI) of PAC-1 and CD62p in this platelet fraction before and after stimulation was calculated.
# [3] = tested on: immortalized megakaryocytes; experiment: shRNA knockdown in immortalized megakaryocytes during overexpression: number of CD41a-positive cells; format: cell-based, human; settings: during overexpression of BMI1, c-MYC and BCL-xL (FIG. 17)
# Text: Genes of shRUNX1 with GFP, shHMGA2 with GFP and SCRAMBLE with GFP were introduced into the immortalized megakaryocytes prepared in the above-mentioned section 1 using a viral vector. The cells introduced with the above genes (GFP-positive cells) were then sorted.
# [4] = tested on: immortalized megakaryocytes; experiment: Electron microscopy of shRNA-introduced megakaryocytes cultured with SR-1 and Y27632; format: cell-based, human; settings: DOX-free medium containing SR-1 and Y27632 (FIG. 21)
# Experimental: Cells introduced with genes shRUNX1, shHMGA2 and shSCRAMBLE obtained in section 9 above were cultured in DOX-free megakaryocyte medium containing SR-1 and Y27632 and observed with an electron microscope.
# [5] = tested on: immortalized megakaryocytes; experiment: shRNA knockdown: multinucleation and platelet production after terminating overexpression of cMYC, BMI1 and BCL-xL; format: cell-based, human
# Experimental: Next, the production of platelets was measured after having terminated overexpression of cMYC, BMI1 and BCL-xL genes using the method described in the aforementioned section 1-5.
molecule,measurement,setting,value
"Cc1ccccc1N=Nc1ccc(NC(=O)c2ccnn2C)c(C)c1 [CH-223191, 2-methyl-2H-pyrazole-3-carboxylic acid (2-methyl-4-o-tolylazo-phenyl)-amide]","synergistic effect on number of platelets produced, AhR antagonist combined with Y27632",[1]; in combination with Y27632 (FIG. 10),prominent synergistic effects that exceeded that of SR-1
"CC(C)n1cnc2c(NCCc3ccc(O)cc3)nc(-c3csc4ccccc34)nc21 [SR-1, 4-(2-(2-(benzo[b]thiophen-3-yl)-9-isopropyl-9H-purin-6-ylamino)ethyl)phenol]",duration of culturing after which highly functional platelets tend to be obtained,[2]; AhR antagonist added after terminating overexpression,5 days
same,platelet function,[2]; compared with the absence of SR-1 (FIG. 1),higher
same,number of platelets bound by PAC-1 and anti-CD62p antibody,"[2]; static culturing 7 days, no feeder cells, addition of SR-1 (FIG. 1)",confirmed to increase
C[C@@H](N)c1ccc(C(=O)Nc2ccnc3[nH]ccc23)cc1 [Y39983],"synergistic effect on number and function of platelets produced, ROCK inhibitor combined with SR-1",[1],prominent synergistic effect that exceeded that of Y27632
O=S(=O)(c1cccc2cnccc12)N1CCCNCC1 [fasudil hydrochloride],"synergistic effect on number and function of platelets produced, ROCK inhibitor combined with SR-1",[1]; hydrochloride,concentration-dependent synergistic effects comparable to that of Y27632
C[C@H]1CNCCCN1S(=O)(=O)c1cccc2cncc(F)c12 [ripasudil],"synergistic effect on number and function of platelets produced, ROCK inhibitor combined with SR-1",[1],concentration-dependent synergistic effects comparable to that of Y27632
B1,number of CD41a-positive cells,[3],increase
same,cell morphology by electron microscopy,[4],numerous small nucleated cells
same,development of demarcation membrane systems (DMS) in the cells,[4],lacking
same,formation of secretory granules,[4],only be formed to a moderate degree
B2,number of CD41a-positive cells,[3],decrease
same,number of platelets produced per megakaryocyte,[5]; after terminating overexpression (bottom of FIG. 19),increase dramatically
same,megakaryocyte multinucleation,[5]; after terminating overexpression (top of FIG. 19),considerable promotion
same,cell morphology by electron microscopy,[4],multinucleated and enlarged cells were observed
same,development of demarcation membrane systems (DMS) in the cells,[4],formation of a DMS and secretory granules was observed
same,formation of secretory granules,[4],formation of a DMS and secretory granules was observed

# Source: patent US10947504B2, “Method for producing highly functional platelets” (Kyoto University, priority 2015, dated 2021)
